From patent publication US20100062978A1 (UNIVERSITY OF TOKYO, published 2010)

B1: 186-328 variant of human SNT-2 (PTB-domain-deleted), C-terminal FLAG-tag (other)
chain: DEQSHTYVNTPASEDDHRRGRHCLQPLPEGQAPFLPQARGPDQRDPQVFLQPGQVKFVLGPTPARRHMVKCQGLCPSLHDPPHHNNNNEAPSECPAQPKCTYENVTGGLWRGAGWRLSPEEPGWNGLAHRRAALLHYENLPPL
notes: not shown: C-terminal FLAG-tag
B2: 1-236 variant of human SNT-2, C-terminal FLAG-tag (other)
chain: MGSCCSCLNRDSVPDNHPTKFKVTNVDDEGVELGSGVMELTQSELVLHLHRREAVRWPYLCLRRYGYDSNLFSFESGRRCQTGQGIFAFKCSRAEEIFNLLQDLMQCNSINVMEEPVIITRNSHPAELDLPRAPQPPNALGYTVSSFSNGCPGEGPRFSAPRRLSTSSLRHPSLGEESTHALIAPDEQSHTYVNTPASEDDHRRGRHCLQPLPEGQAPFLPQARGPDQRDPQVFLQ
notes: C-terminal-cut-off variant expressed in HEK293 cells; not shown: C-terminal FLAG-tag

Key:
[1] = target: T1, wild-type human EGFR (erbB1) (human, UniProt P00533 25-1210); test: co-immunoprecipitation with anti-EGFR antibody from HEK293 lysate, immunoblot
T1 construct: whole, on cells; precipitated from cell lysates with anti-EGFR antibody; also called HER1; wild-type EGFR
Experimental: Before EGF treatment, Saos-2 cell or HEK293 cell was kept serum deficiency state for 24 hours.

[2] = target: T2, GST-ERK2 fusion protein (glutathione S-transferase fused with human ERK2, from pGEX-4T-1) (human, UniProt P28482 1-360); test: GST-ERK2 pull-down from HEK293 lysate, immunoblot
T2 construct: Expressed in E. coli BL21 and immobilised on Glutathione Sepharose beads for the pull-down; not shown: glutathione S-transferase (GST) encoded by the vector pGEX-4T-1
T2 sequence (P28482 whole entry, the tested form may be a part): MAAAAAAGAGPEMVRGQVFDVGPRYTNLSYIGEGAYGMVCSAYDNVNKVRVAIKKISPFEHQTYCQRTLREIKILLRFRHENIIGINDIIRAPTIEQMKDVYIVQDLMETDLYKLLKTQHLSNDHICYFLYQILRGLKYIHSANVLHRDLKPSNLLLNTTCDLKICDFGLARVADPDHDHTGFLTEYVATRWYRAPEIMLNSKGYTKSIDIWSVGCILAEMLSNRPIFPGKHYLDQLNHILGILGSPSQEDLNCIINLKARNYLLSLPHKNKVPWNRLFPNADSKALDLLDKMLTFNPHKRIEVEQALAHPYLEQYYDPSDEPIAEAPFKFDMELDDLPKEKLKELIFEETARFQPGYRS

| Binder | binding result [1] | binding result [2] |
| --- | --- | --- |
| B1 | no binding |  |
| B2 |  | no binding |
